In the supplement of paper PMC10567573:

B1: PCDHGA10 (parent)
chain: FHELQMQVTASDSGDPPLSSNVSL

Variants of: B1
Assay: protein stability index of a GFP-peptide fusion (GPS, HEK-293T) (PSI 1-6); higher = more stable
Settings: c terminus: a fixed tail appended
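Also: lentivirally expressed fusions sorted by FACS into six bins by GFP to DsRed ratio, PSI derived from sequencing read proportions per bin multiplied by bin number.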

Variant | protein stability index
FHELQMQVTWSDSGDPPLSSNVSL | 1.86
FHELQMQVTFSDSGDPPLSSNVSL | 1.97
FHELQMQVTTSDSGDPPLSSNVSL | 2.13
FHELQMQVTISDSGDPPLSSNVSL | 2.38
FHELQMQVTESDSGDPPLSSNVSL | 2.7
FHELQMQVTNSDSGDPPLSSNVSL | 1.99
FHELQMQVTMSDSGDPPLSSNVSL | 1.49
FHELQMQVTLSDSGDPPLSSNVSL | 1.29
FHELQMQVTASVSGDPPLSSNVSL | 1.73
FHELQMQVTASCSGDPPLSSNVSL | 1.98
FHELQMQVTASGSGDPPLSSNVSL | 2.14
FHELQMQVTASKSGDPPLSSNVSL | 2.35
FHELQMQVTASRSGDPPLSSNVSL | 1.82
FHELQMQVTASMSGDPPLSSNVSL | 3
FHELQMQVTASTSGDPPLSSNVSL | 1.86
FHELQMQVTASNSGDPPLSSNVSL | 2.92
FHELQMQVTASQSGDPPLSSNVSL | 1.89
FHVLQMQVTASDSGDPPLSSNVSL | 1.6
FHMLQMQVTASDSGDPPLSSNVSL | 2.31
FHGLQMQVTASDSGDPPLSSNVSL | 2.69
FHCLQMQVTASDSGDPPLSSNVSL | 2.53
FHKLQMQVTASDSGDPPLSSNVSL | 2.21
FHTLQMQVTASDSGDPPLSSNVSL | 1.82
FHPLQMQVTASDSGDPPLSSNVSL | 1.97

Variant | protein stability index
FHALQMQVTASDSGDPPLSSNVSL | 1.91
FHLLQMQVTASDSGDPPLSSNVSL | 1.92
FHDLQMQVTASDSGDPPLSSNVSL | 2.07
FHELQMQVTAIDSGDPPLSSNVSL | 1.88
FHELQMQVTAYDSGDPPLSSNVSL | 1.47
FHELQMQVTAGDSGDPPLSSNVSL | 2.13
FHELQMQVTARDSGDPPLSSNVSL | 1.96
FHELQMQVTAQDSGDPPLSSNVSL | 2.72
FHELQMQVTANDSGDPPLSSNVSL | 2.03
FHELQMQVTAHDSGDPPLSSNVSL | 2.16
FHELQMQVTASDSGDFPLSSNVSL | 1.6
FHELQMQVTASDSGDCPLSSNVSL | 1.85
FHELQMQVTASDSGDKPLSSNVSL | 2.36
FHELQMQVTASDSGDWPLSSNVSL | 1.69
FHELQMQVTASDSGDYPLSSNVSL | 1.59
FHELQMQVTASDSGDHPLSSNVSL | 2.1
FHELQMQVTASDSGDNPLSSNVSL | 2.23
FHELQMQVTASDSGDRPLSSNVSL | 2.19
FHELQMQVTASDSGDTPLSSNVSL | 1.99
FHELQMQVTASDSGDQPLSSNVSL | 2.08
FHELQMQVTASDSGDLPLSSNVSL | 1.57
FHELQMQVTASDSGDPPLSSMVSL | 1.75
FHELQMQVTASDSGDPPLSSWVSL | 1.55
